Data on four molecules can be found in US10920254B2, “Methods and materials for producing 5 and 7-carbon monomers” (INVISTA North America S.á.r.l., priority 2015, dated 2021).

Format in all cases: biochemical
Data set [1] is described as follows: ω-transaminase enzyme activity assay (7-aminoheptanol to 7-oxoheptanol), L-alanine formation by RP-HPLC. The following applies: for acceptance of 7-aminoheptanol as substrate (conversion of pyruvate to L-alanine), confirmed against the empty vector control: cell free extract, 10 mM 7-aminoheptanol, 10 mM pyruvate, pH 7.5, 25° C., 4 h, FIG. 17; for acceptance of 7-oxoheptanol as substrate forming 7-aminoheptanol: concluded from the reversibility of the ω-transaminase activity (Example 1). On the procedure: A nucleotide sequence encoding an N-terminal His-tag was added to the Chromobacterium violaceum, Pseudomonas syringae, and Rhodobacter sphaeroides nucleic acids encoding the ω-transaminases of SEQ ID NOs: 7, 9 and 10, respectively (see FIGS. 6E-6F), such that N-terminal HIS tagged ω-transaminases could be produced. The modified genes were cloned into a pET21a expression vector under the T7 promoter. Each expression vector was transformed into a BL21[DE3] E. coli host. Each resulting recombinant E. coli strain was cultivated at 37° C. in a 250 mL shake flask culture containing 50 mL LB media and antibiotic selection pressure, with shaking at 230 rpm. Each culture was induced overnight at 16° C. using 1 mM IPTG.
(§1) The pellet from each induced shake flask culture was harvested via centrifugation. Each pellet was resuspended and lysed via sonication. The cell debris was separated from the supernatant via centrifugation and the cell free extract was used immediately in enzyme activity assays.
Enzyme activity assays in the reverse direction (i.e., 7-aminoheptanol to 7-oxoheptanol) were performed in a buffer composed of a final concentration of 50 mM HEPES buffer (pH=7.5), 10 mM 7-aminoheptanol, 10 mM pyruvate, and 100 μM pyridoxyl 5′ phosphate. Each enzyme activity assay reaction was initiated by adding cell free extract of the ω-transaminase gene product or the empty vector control to the assay buffer containing the 7-aminoheptanol and then incubated at 25° C. for 4 h, with shaking at 250 rpm. The formation of L-alanine was quantified via RP-HPLC.

Data set [2] in a line: ω-transaminase enzyme activity assay, forward direction (pimelate semialdehyde to 7-aminoheptanoate), pyruvate formation by RP-HPLC. As to conditions: for acceptance of pimelate semialdehyde as substrate (conversion of L-alanine to pyruvate), confirmed against the empty vector control: cell free extract, 10 mM pimelate semialdehyde, 10 mM L-alanine, pH 7.5, 25° C., 4 h, FIG. 14; for reversibility of the ω-transaminase activity: pimelate semialdehyde accepted, 7-aminoheptanoate synthesized: conclusion from forward and reverse direction assays of Example 1. On the procedure:
(§2) A nucleotide sequence encoding an N-terminal His-tag was added to the nucleic acid sequences from Chromobacterium violaceum, Pseudomonas syringae, Rhodobacter sphaeroides, and Vibrio fluvialis encoding the ω-transaminases of SEQ ID NOs: 7, 9, 10, and 12, respectively (see FIGS. 6E-6F) such that N-terminal HIS tagged ω-transaminases could be produced. Each of the resulting modified genes was cloned into a pET21a expression vector under control of the T7 promoter and each expression vector was transformed into a BL21[DE3] E. coli host. The resulting recombinant E. coli strains were cultivated at 37° C. in a 250 mL shake flask culture containing 50 mL LB media and antibiotic selection pressure, with shaking at 230 rpm. Each culture was induced overnight at 16° C. using 1 mM IPTG.
as §1
Enzyme activity in the forward direction (i.e., pimelate semialdehyde to 7-aminoheptanoate) was confirmed for the transaminases of SEQ ID NO: 9, SEQ ID NO: 10, and SEQ ID NO: 12. Enzyme activity assays were performed in a buffer composed of a final concentration of 50 mM HEPES buffer (pH=7.5), 10 mM pimelate semialdehyde, 10 mM L-alanine, and 100 μM pyridoxyl 5′ phosphate. Each enzyme activity assay reaction was initiated by adding a cell free extract of the ω-transaminase gene product or the empty vector control to the assay buffer containing the pimelate semialdehyde and incubated at 25° C. for 4 h, with shaking at 250 rpm. The formation of pyruvate was quantified via RP-HPLC.

Data set [3] can be described thus: ω-transaminase enzyme activity assay, reverse direction (7-aminoheptanoate to pimelate semialdehyde), L-alanine formation by RP-HPLC. The following applies: cell free extract; 10 mM 7-aminoheptanoate, 10 mM pyruvate, pH 7.5, 25° C., 4 h; FIG. 13. On the procedure:
as §2, §1
Enzyme activity assays in the reverse direction (i.e., 7-aminoheptanoate to pimelate semialdehyde) were performed in a buffer composed of a final concentration of 50 mM HEPES buffer (pH=7.5), 10 mM 7-aminoheptanoate, 10 mM pyruvate, and 100 μM pyridoxyl 5′ phosphate. Each enzyme activity assay reaction was initiated by adding cell free extract of the ω-transaminase gene product or the empty vector control to the assay buffer containing the 7-aminoheptanoate and incubated at 25° C. for 4 h, with shaking at 250 rpm. The formation of L-alanine from pyruvate was quantified via RP-HPLC.

In the case of “SEQ ID NO: 10: Rhodobacter sphaeroides ω-transaminase, N-terminal HIS tagged”, in data set [1], the “acceptance of 7-aminoheptanol as substrate (conversion of pyruvate to L-alanine), confirmed against the empty vector control” value (from here on “acceptance of 7-aminoheptanol”) was “accepted 7-aminoheptanol as substrate”; the “acceptance of 7-oxoheptanol as substrate forming 7-aminoheptanol” value (“acceptance of 7-oxoheptanol” below) is “accept 7-oxoheptanol as substrate and form 7-aminoheptanol”. In data set [2], the “acceptance of pimelate semialdehyde as substrate (conversion of L-alanine to pyruvate), confirmed against the empty vector control” value (“acceptance of pimelate semialdehyde” for short) is given as “accepted pimelate semialdehyde as substrate”; the “reversibility of the ω-transaminase activity: pimelate semialdehyde accepted, 7-aminoheptanoate synthesized” value (from here on “reversibility”) was “accepted pimelate semialdehyde as substrate and synthesized 7-aminoheptanoate as a reaction product”. Also, the “acceptance of 7-aminoheptanoate as substrate (conversion of pyruvate to L-alanine), confirmed against the empty vector control” value (shortened to “acceptance of 7-aminoheptanoate”) in data set [3] is “accepted 7-aminoheptanote as substrate”.

B1: SEQ ID NO: 7: Chromobacterium violaceum ω-transaminase, N-terminal HIS tagged (protein, listed as Chromobacterium violaceum)
chain: MQKQRTTSQWRELDAAHHLHPFTDTASLNQAGARVMTRGEGVYLWDSEGNKIIDGMAGLWCVNVGYGRKDFAEAARRQMEELPFYNTFFKTTHPAVVELSSLLAEVTPAGFDRVFYTNSGSESVDTMIRMVRRYWDVQGKPEKKTLIGRWNGYHGSTIGGASLGGMKYMHEQGDLPIPGMAHIEQPWWYKHGKDMTPDEFGVVAARWLEEKILEIGADKVAAFVGEPIQGAGGVIVPPATYWPEIERICRKYDVLLVADEVICGFGRTGEWFGHQHFGFQPDLFTAAKGLSSGYLPIGAVFVGKRVAEGLIAGGDFNHGFTYSGHPVCAAVAHANVAALRDEGIVQRVKDDIGPYMQKRWRETFSRFEHVDDVRGVGMVQAFTLVKNKAKRELFPDFGEIGTLCRDIFFRNNLIMRACGDHIVSAPPLVMTRAEVDEMLAVAERCLEEFEQTLKARGLA
modifications: N-terminal His tag
notes: Chromobacterium violaceum ω-transaminase, N-terminal HIS tagged
In the case of B1, in data set [1], the “acceptance of 7-aminoheptanol” value is listed as “accepted 7-aminoheptanol as substrate”; the “acceptance of 7-oxoheptanol” value was “accept 7-oxoheptanol as substrate and form 7-aminoheptanol”. Moreover, in data set [2], the “reversibility” value was “accepted pimelate semialdehyde as substrate and synthesized 7-aminoheptanoate as a reaction product”. The “acceptance of 7-aminoheptanoate” value in data set [3] is “accepted 7-aminoheptanote as substrate”.

B2: SEQ ID NO: 9: Pseudomonas syringae ω-transaminase, N-terminal HIS tagged (protein, listed as Pseudomonas syringae)
chain: MSANNPQTLEWQALSSEHHLAPFSDYKQLKEKGPRIITRAEGVYLWDSEGNKILDGMSGLWCVAIGYGREELADAASKQMRELPYYNLFFQTAHPPVLELAKAISDIAPEGMNHVFFTGSGSEGNDTMLRMVRHYWALKGQPNKKTIISRVNGYHGSTVAGASLGGMTYMHEQGDLPIPGVVHIPQPYWFGEGGDMTPDEFGIWAAEQLEKKILELGVENVGAFIAEPIQGAGGVIVPPDSYWPKIKEILSRYDILFAADEVICGFGRTSEWFGSDFYGLRPDMMTIAKGLTSGYVPMGGLIVRDEIVAVLNEGGDFNHGFTYSGHPVAAAVALENIRILREEKIVERVRSETAPYLQKRLRELSDHPLVGEVRGVGLLGAIELVKDKTTRERYTDKGAGMICRTFCFDNGLIMRAVGDTMIIAPPLVISFAQIDELVEKARTCLDLTLAVLQG
modifications: N-terminal His tag
notes: Pseudomonas syringae ω-transaminase, N-terminal HIS tagged
As to B2, in data set [1], the “acceptance of 7-aminoheptanol” value is “accepted 7-aminoheptanol as substrate”; the “acceptance of 7-oxoheptanol” value is “accept 7-oxoheptanol as substrate and form 7-aminoheptanol”. Moreover, in data set [2], the “acceptance of pimelate semialdehyde” value is given as “accepted pimelate semialdehyde as substrate”; the “reversibility” value was “accepted pimelate semialdehyde as substrate and synthesized 7-aminoheptanoate as a reaction product”. The “acceptance of 7-aminoheptanoate” value in data set [3] is “accepted 7-aminoheptanote as substrate”.

B3: SEQ ID NO: 12: Vibrio fluvialis ω-transaminase, N-terminal HIS tagged (protein, listed as Vibrio fluvialis)
chain: MNKPQSWEARAETYSLYGFTDMPSLHQRGTVVVTHGEGPYIVDVNGRRYLDANSGLWNMVAGFDHKGLIDAAKAQYERFPGYHAFFGRMSDQTVMLSEKLVEVSPFDSGRVFYTNSGSEANDTMVKMLWFLHAAEGKPQKRKILTRWNAYHGVTAVSASMTGKPYNSVFGLPLPGFVHLTCPHYWRYGEEGETEEQFVARLARELEETIQREGADTIAGFFAEPVMGAGGVIPPAKGYFQAILPILRKYDIPVISDEVICGFGRTGNTWGCVTYDFTPDAIISSKNLTAGFFPMGAVILGPELSKRLETAIEAIEEFPHGFTASGHPVGCAIALKAIDVVMNEGLAENVRRLAPRFEERLKHIAERPNIGEYRGIGFMWALEAVKDKASKTPFDGNLSVSERIANTCTDLGLICRPLGQSVVLCPPFILTEAQMDEMFDKLEKALDKVFAEVA
modifications: N-terminal His tag
notes: Vibrio fluvialis ω-transaminase, N-terminal HIS tagged
For B3, in data set [2], the “acceptance of pimelate semialdehyde” value was “accepted pimelate semialdehyde as substrate”; the “reversibility” value was “accepted pimelate semialdehyde as substrate and synthesized 7-aminoheptanoate as a reaction product”. In addition, the “acceptance of 7-aminoheptanoate” value in data set [3] is “accepted 7-aminoheptanote as substrate”.
